± gives the standard deviation of the averaged measurements.
What follows are sequences tested on Saccharomyces cerevisiae (assay: protein stability index of tFT-peptide fusion (C-terminal peptide) (PSI (0-1 scale)); higher = more stable (slower turnover)). Conditions: genetic background: wild type; temperature: 30 C.
Method: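 MPS profiling in S. cerevisiae of the yeast C-terminome library: the last 12 aa of each annotated ORF are fused to the C-terminus of a sfGFP-mCherry timer, after a GGGS linker. Cells are FACS-sorted into 8 mCherry/sfGFP bins and deep-sequenced. PSI runs from 0 (unstable) to 1 (stable); wild type and das1Δ backgrounds, two technical replicates each.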

In order of rising protein stability index:
1. CTFIYFLYFSLF [YBL070C C-terminal 12 aa]  0.288 ± 0.03
2. CLCLINLCCDVF [YDR034W-B C-terminal 12 aa]  0.295 ± 0.0068
3. CRGIAEVNMKYT [PPS1 C-terminal 12 aa]  0.6326 ± 0.0059
4. DDEIDSEEDENA [SDD3 C-terminal 12 aa]  0.653 ± 0.018
5. DDDDDDDGQITA [YHR131C C-terminal 12 aa]  0.6663 ± 0.004
6. CIPLINYHLRKS [CBS1 C-terminal 12 aa]  0.673 ± 0.023
7. DDFKKAFREKRK [ALY1 C-terminal 12 aa]  0.676 ± 0.044
8. DEDDDEDVTDQE [DLS1 C-terminal 12 aa]  0.677 ± 0.013
9. CKDQTVTQILAT [DMO1 C-terminal 12 aa]  0.682 ± 0.029
10. DEEEEIEPEVKA [SBA1 C-terminal 12 aa]  0.685 ± 0.027
11. CWENVRKTRAAK [PSO2 C-terminal 12 aa]  0.6966 ± 0.005
12. DACIKRWNVVLE [AIP1 C-terminal 12 aa]  0.71 ± 0.049
13. CMESNPPVFMAI [YNL296W C-terminal 12 aa]  0.713 ± 0.021
14. DEQPTLSQSKTK [DAD1 C-terminal 12 aa]  0.714 ± 0.076
15. CICSGMLFEMDG [SIN4 C-terminal 12 aa]  0.716 ± 0.067
16. CYTEEEWSKIVV [BOL2 C-terminal 12 aa]  0.717 ± 0.019
17. DFIKNPNDYFKQ [BEM2 C-terminal 12 aa]  0.729 ± 0.1

These sequences were tested on Saccharomyces cerevisiae in the same assay as above. Conditions: genetic background: cdc34-1; temperature: 37 C.
Method: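 MPS profiling in S. cerevisiae of the tFT-X12 degron library: putative degron peptides plus stable controls, 12 aa, fused to the C-terminus of a sfGFP-mCherry timer. Cells are FACS-sorted into 8 mCherry/sfGFP bins and deep-sequenced. PSI runs from 0 (unstable) to 1 (stable). Backgrounds are wild type, das1Δ and doa10Δ at 30 °C, and wild type, das1Δ, cdc34-1 and cdc53-1 at 37 °C; 2-3 technical replicates each.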

In order of falling protein stability index:
1. YWGFHPCCAFGY  0.722 ± 0.048
2. YTQKFTFYGLPA  0.701 ± 0.035
3. YYQVSQKIQRKQ  0.681 ± 0.012
4. YLFLPGGEVSVH  0.641 ± 0.033
5. YPPLFLLMRGVL  0.594 ± 0.021
6. YRHYGVARKKLA  0.592 ± 0.075
7. YVRHDKLILSFC  0.492 ± 0.026
8. YWFWLLIGSFSC  0.487 ± 0.053
9. YLGSPLSLMLVA  0.48 ± 0.022
10. YVSLPFVVWWFC  0.443 ± 0.029
11. YPFSLVLGVFAF  0.367 ± 0.02
12. YLFFSCIFTFSC  0.121 ± 0.025

Same assay, conditions: genetic background: cdc53-1; temperature: 37 C

In order of rising protein stability index:
1. YLFFSCIFTFSC  0.198 ± 0.027
2. YPFSLVLGVFAF  0.389 ± 0.022
3. YLGSPLSLMLVA  0.491 ± 0.026
4. YWFWLLIGSFSC  0.51 ± 0.013
5. YVRHDKLILSFC  0.529 ± 0.041
6. YVSLPFVVWWFC  0.533 ± 0.016
7. YLFLPGGEVSVH  0.653 ± 0.019
8. YPPLFLLMRGVL  0.694 ± 0.013
9. YRHYGVARKKLA  0.7016 ± 0.0023
10. YYQVSQKIQRKQ  0.708 ± 0.021
11. YTQKFTFYGLPA  0.721 ± 0.013
12. YWGFHPCCAFGY  0.784 ± 0.012

Same assay, conditions: genetic background: das1 deletion; temperature: 30 C

In order of falling protein stability index:
1. YTQKFTFYGLPA  0.639 ± 0.038
2. YYQVSQKIQRKQ  0.639 ± 0.023
3. YWGFHPCCAFGY  0.636 ± 0.013
4. YRHYGVARKKLA  0.634 ± 0.034
5. YPPLFLLMRGVL  0.605 ± 0.018
6. YLFLPGGEVSVH  0.538 ± 0.032
7. YVRHDKLILSFC  0.427 ± 0.021
8. YVSLPFVVWWFC  0.414 ± 0.026
9. YWFWLLIGSFSC  0.382 ± 0.026
10. YLGSPLSLMLVA  0.379 ± 0.031
11. YPFSLVLGVFAF  0.298 ± 0.028
12. YLFFSCIFTFSC  0.179 ± 0.024

Same assay, conditions: genetic background: das1 deletion; temperature: 37 C

In order of falling protein stability index:
1. YLFLPGGEVSVH  0.666 ± 0.0033
2. YLGSPLSLMLVA  0.51 ± 0.006
3. YLFFSCIFTFSC  0.331 ± 0.014

Source: the supplement of paper PMC10724198
